Results on one substance are retold here after IntAct's records for PubMed 15350535.

For the assay, the target named is PAK1, Q13153-2.
Chain of PAK1, Q13153-2 (Q13153 other isoform, or with tags, fused parts or gaps): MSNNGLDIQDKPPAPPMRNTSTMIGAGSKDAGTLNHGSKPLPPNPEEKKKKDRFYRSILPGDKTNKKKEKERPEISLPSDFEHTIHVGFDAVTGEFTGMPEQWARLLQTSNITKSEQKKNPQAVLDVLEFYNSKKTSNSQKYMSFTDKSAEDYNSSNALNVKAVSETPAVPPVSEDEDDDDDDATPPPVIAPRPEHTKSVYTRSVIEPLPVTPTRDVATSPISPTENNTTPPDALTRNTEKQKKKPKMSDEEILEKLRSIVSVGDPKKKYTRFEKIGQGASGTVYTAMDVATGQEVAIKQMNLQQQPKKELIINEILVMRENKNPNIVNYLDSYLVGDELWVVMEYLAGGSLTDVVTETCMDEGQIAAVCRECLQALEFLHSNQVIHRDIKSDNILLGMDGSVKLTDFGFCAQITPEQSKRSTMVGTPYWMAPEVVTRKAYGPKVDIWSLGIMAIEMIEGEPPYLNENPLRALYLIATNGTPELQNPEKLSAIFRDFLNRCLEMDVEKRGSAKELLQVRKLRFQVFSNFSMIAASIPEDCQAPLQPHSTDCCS

On to “Rho-related GTP-binding protein RhoU (Homo sapiens), Q7L0Q8 T63N”, for which the “effect of a mutation on the interaction” value is listed as “decreasing interaction”.
